These results are taken from patent US20240101668A1 (WUGEN, published 2024).

Substitutions are numbered along the chain they refer to.

Sequences and labels used below:
T1: huCLL1-K244-Avi-Tev-His (human, UniProt Q5QGZ9 65-265)
T1 construct: extracellular domain
T1 sequence (looked up): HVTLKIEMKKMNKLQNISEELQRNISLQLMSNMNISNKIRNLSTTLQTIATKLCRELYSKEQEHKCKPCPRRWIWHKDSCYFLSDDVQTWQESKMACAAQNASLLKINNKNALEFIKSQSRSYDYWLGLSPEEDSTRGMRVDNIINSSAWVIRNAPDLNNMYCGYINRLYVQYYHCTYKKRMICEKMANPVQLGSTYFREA

T2: huCLL1-Q244-Avi-Tev-His (human, UniProt Q5QGZ9 65-265)
T2 construct: extracellular domain; also called CLL-1 K244Q
T2 sequence (looked up): T1 sequence (looked up) with K180Q

B1: Polypeptide No. 43 (scFv, V domains shown)
VH: QVQLVQSGAEVKKPGASVKVSCKASGYTFTNYYMHWVRQAPGQGLEWLGWISPYSGDTKYAQTLQGRVTMTRDTSTSTVYMELSSLRSEDTAVYYCARESMDRLDYWGQGTLVTVSS
VL: DIQMTQSPSSLSASVGDRVTITCRASQSISTYLNWYQQKPGKAPKLLIYDASNLETGVPSRFSGSGSGTDFTLTISSLQPEDFATYYCQQSYSTPVLTFGGGTKVEIKR
notes: scFv
B2: Polypeptide No. 80 (scFv, V domains shown)
VH: QVQLVQSGAEVKKPGASVKVSCKASGFTFTSYYMHWVRQAPGQGLEWMGWMNPNSGNTGYAQRFQGRVTMTRDTSTSTVYMELSSLRSEDTAVYYCARGHSRTDYGMDVWGQGTTVTVSS
VL: DIQMTQSPSSLSASVGDRVTITCRASQSISSWLAWYQQKPGKAPKLLIYDTSSLQSGVPSRFSGSGSGTDFTLTISSLQPEDFATYYCQQGYSTPLTFGQGTKVEIKR
notes: scFv
B3: Polypeptide No. 48 (scFv, V domains shown)
VH: EVQLLESGGGLVQPGGSLRLSCAASGFNFDDYAMHWVRQAPGKGLEWVSVIYSGGSTYYADSVKGRFTISRDNSKNTLYLQMNSLRAEDTAVYYCTRHDFDYWGQGTLVTVSS
VL: B2 VL with S31T, W32Y, L33V, A34N, D50A, T51A, G91D, T94Y, L96Y
notes: scFv
B4: Polypeptide No. 84 (scFv, V domains shown)
VH: QVQLVQSGAEVKKPGASVKVSCKASGGTFSNYAISWVRQAPGQGLEWMGWINPNSGGTNYAQKFQGRVTMTRDTSTSTVYMELSSLRSEDTAVYYCARVGYYDSSGGGMDVWGQGTTVTVSS
VL: B2 VL with T51A, S53N, Q55E, S56T, Q89L, G91T, Y92H, T94F, Q100P, E105D
notes: scFv
B5: Polypeptide No. 49 (scFv, V domains shown)
VH: EVQLVESGGGLVKPGGSLRLSCAASGFTFSDYALHWVRQAPGKGLEWVSLISGDGGSTYYADSVKGRFTISRDDSKNTLYLQMNSLKTEDTAVYYCARDLGGERSYWGQGTLVTVSS
VL: B2 VL with S31T, D50A, T51A, S53T, Q89L, G91D, T94Y, L96P
notes: scFv
B6: Polypeptide No. 78 (scFv, V domains shown)
VH: QVQLVQSGAEVKKPGSSVKVSCKASGGTFSRYPFSWVRQAPGQGLEWMGWMNPNNGDTGYAQKFQGRVTITADESTSTAYMELSSLRSEDTAVYYCARGDYPYMDVWGKGTTVTVSS
VL: DIQMTQSPSSLSASVGDRVTITCQASQDISNYLNWYQQKPGKAPKLLIYDASNLETGVPSRFSGSGSGTDFTLTISSLQPEDFATYYCQQSYSIPYTFGQGTKLEIKR
notes: scFv
B7: Polypeptide No. 81 (scFv, V domains shown)
VH: EVQLLESGGGLVQPGGSLRLSCAASGFTFSDHYMSWVRQAPGKGLEWVSIIYPDGKTYYADSVKGRFTISRDNSKNTLYLQMNSLRAEDTAVYYCAREGSYGDYDGMDVWGQGTTVTVSS
VL: B6 VL with D50G, N53T, E55Q, T56S, I94T, Y96W
notes: scFv
B8: Polypeptide No. 46 (scFv, V domains shown)
VH: QVQLVQSGAEVKKPGASVKVSCKASGYTFTSYYMHWVRQAPGQGLEWMGMINPSAGSTSYAQKFQGRVTMTRDTSTSTVYMELSSLRSEDTAVYYCASVDSSGWYAPFDYWGQGTLVTVSS
VL: B6 VL with Q24R, D28S, N31T, S91A, Y92N, I94F, Y96P, Q100G, L104V
notes: scFv
B9: Polypeptide No. 45 (scFv, V domains shown)
VH: EVQLVESGGGLVKPGGSLRLSCAASGFTFDEFGMNWVRQAPGKGLEWISYISGDSGYTNCADSVKGRFTISRDDSKNTLYLQMNSLKTEDTAVYYCAAGYGGYYFDYWGQGTLVTVSS
VL: B6 VL with S30D, N31I, D50A, N53T, T56S, I94T, Y96P, Q100G, L104V
notes: scFv
B10: Polypeptide No. 88 (scFv, V domains shown)
VH: QVQLVQSGAEVKKPGASVKVSCKASGYTFTGYHIHWVRQAPGQGLEWMGRINPNSGGTDYAQKFQGRVTMTRDTSTSTVYMELSSLRSEDTAVYYCARETYSGSYEESFDYWGQGTLVTVSS
VL: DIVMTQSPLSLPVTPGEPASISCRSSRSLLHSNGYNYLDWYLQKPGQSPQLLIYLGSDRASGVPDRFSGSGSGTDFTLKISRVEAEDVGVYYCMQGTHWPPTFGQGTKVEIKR
notes: scFv
B11: Polypeptide No. 86 (scFv, V domains shown)
VH: QVQLVQSGAEVKKPGASVKVSCKASGYTFTTYGISWVRQAPGQGLEWMGWINPNSGDTNYAQKFQGRVTMTRDTSTSTVYMELSSLRSEDTAVYYCARLTTATDSFDLWGRGTLVTVSS
VL: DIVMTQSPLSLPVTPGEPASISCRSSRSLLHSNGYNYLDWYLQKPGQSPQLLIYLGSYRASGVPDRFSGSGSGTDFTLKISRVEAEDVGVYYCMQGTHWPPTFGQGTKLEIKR
notes: scFv
B12: Polypeptide No. 44 (scFv, V domains shown)
VH: EVQLLESGGGLVQPGGSLRLSCAASGFTFSSYAMHWVRQAPGKGLEWVADISGSGGLTYYADSVKGRFTISRDNSKNTLYLQMNSLRAEDTAVYYCAREGDQYSSSSFFDYWGQGTLVTVSS
VL: not shown
notes: scFv
B13: Polypeptide No. 47 (scFv, V domains shown)
VH: EVQLLESGGGLVQPGGSLRLSCAASGFTFDEYAMHWVRQAPGKGLEWVSAIGAGGSTYYADSVKGRFTISRDNSKNTLYLQMNSLRAEDTAVYYCASSLGPELRGVDYYYYGMDVWGQGTTVTVSS
VL: DIVMTQSPLSLPVTPGEPASISCRSSQSLLHSNGYNYLDWYLQKPGQSPQLLIYAASSLQSGVPDRFSGSGSGTDFTLKISRVEAEDVGVYYCMQGIQWPWTFGQGTKVEIKR
notes: scFv
B14: Polypeptide No. 82 (scFv, V domains shown)
VH: QVQLVQSGAEVKKPGSSVKVSCKASGGTFSNYDISWVRQAPGQGLEWMGGIIPIFGTANYAQKFQGRVTITADESTSTAYMELSSLRSEDTAVYYCAREAEEGGWFDPWGQGTLVTVSS
VL: EIVMTQSPATLSVSPGERATLSCRASQSVSSYLAWYQQKPGQAPRLLIYGASTRATGIPARFSGSGSGTEFTLTISSLQSEDFAVYYCQQYAFSPITFGQGTKLEIKR
notes: scFv
B15: Polypeptide No. 20 (scFv, V domains shown)
VH: QVQLVQSGAEVKKPGASVKVSCKASGYMFTGYYIHWVRQAPGQGLEWMGWINPNSGGTNYAQKFQGRVTMTRDTSTSTVYMELSSLRSEDTAVYYCAKDRFGSGNYGYMDVWGKGTTVTVSS
VL: B2 VL with S30D, S31R, D50G, T51A, G91S, L96W, K103R, V104L
notes: scFv
B16: Polypeptide No. 4 (scFv, V domains shown)
VH: QVQLVQSGAEVKKPGASVKVSCKASGGTFSSYAISWVRQAPGQGLEWMGWINPNSGNTGYAQKFQGRVTMTRDTSTSTVYMELSSLRSEDTAVYYCAREHGDMDVWGQGTTVTVSS
VL: EIVMTQSPATLSVSPGERATLSCRASQNINSDLAWYQQKPGQAPRLLIYGASTRATGIPARFSGSGSGTEFTLTISSLQSEDFAVYYCQQYDSLPFTFGPGTKVDIKR
notes: scFv
B17: Polypeptide No. 37 (scFv, V domains shown)
VH: QVQLVQSGAEVKKPGASVKVSCKASGYTFTGYYLHWVRQAPGQGLEWMGVISPSGGGTSYAQKFQGRVTMTRDTSTSTVYMELSSLRSEDTAVYYCARAGFGEGVFRHWGQGTLVTVSS
VL: not shown
notes: scFv
B18: Polypeptide No. 24 (scFv, V domains shown)
VH: QVQLVQSGAEVKKPGSSVKVSCKASGYSFTSYGISWVRQAPGQGLEWLGWISAYNGNTNYGQSLQGRVTITADESTSTAYMELSSLRSEDTAVYYCARARGAGTFFDYWGQGTLVTVSS
VL: B13 VL with A55D, S57T, S58N, Q60P, S61T, G96A, I97L, W99T, W101F, V109L
notes: scFv

One assay deals with T1, huCLL1-K244-Avi-Tev-His. In words: BLI. In general terms: BLI is a label-free optical method that tracks binding on a fibre tip over time.
Procedure: (§1) Discovered scFvs were analyzed for binding to huCD33-R69-His or huCD33-G69-Fc recombinant proteins (for anti-CD33 scFvs; for CLL-1 scFvs, huCLL1-K244-Avi-Tev-His or huCLL1-Q244-Avi-Tev-His were used; for FLT3, huFLT3-T227-His or huFLT3-M227-Fc were used) using BLI on a ForteBio Octet HTX instrument. Streptavidin-coated biosensors were loaded with biotinylated anti-V5 tag monoclonal antibody for 5 min and were then quenched and blocked with 20 μM amine-PEG2-Biotin for 5 min. scFvs were captured on biosensors from scFv clone periplasmic extracts. huCD33 (or huCLL-1, or huFLT3) proteins were then associated with the captured scFvs for 2 minutes, followed by dissociation with buffer (1×HBST [10 mM HEPES pH 7.4, 150 mM NaCl, 0.05% Tween-20], 1 g/L BSA) for 5 minutes. […] Data was fitted with 1:1 Langmuir equation and off-rate values were reported.
(§2) Analogous methods were used to assess selectivity of binding of polypeptides to CLL-1 K244 or CLL-1 Q244.
As to B1, the binding result is listed as “binds”.

Consider B2, for which the binding result is reported as “no binding”.

Consider B3, for which the binding result is on record as “binds”.

Take B4: the binding result was “no binding”.

With B5, the binding result was “binds”.

B6: the binding result is “no binding”.

Regarding B7, the binding result was “no binding”.

In the case of B8, the binding result is on record as “binds”.

B9: the binding result was “binds”.

Take B10: the binding result is “no binding”.

B11: the binding result is “no binding”.

For B12, the binding result is listed as “binds”.

As to B13, the binding result was “binds”.

In the case of B14, the binding result is recorded as “no binding”.

Another assay deals with T2, huCLL1-Q244-Avi-Tev-His. In words: BLI.
Procedure: as §1, §2
On to B1, for which the binding result was “no binding”.

As to B2, the binding result is given as “binds”.

Turning to B3, the binding result was “no binding”.

For the molecule B4, the binding result was “binds”.

Regarding B5, the binding result was “no binding”.

Regarding B6, the binding result was “binds”.

As for B7, the binding result is on record as “binds”.

As to B8, the binding result is “no binding”.

With B9, the binding result is recorded as “no binding”.

Regarding B10, the binding result is “binds”.

On to B11, for which the binding result was “binds”.

For the molecule B12, the binding result was “no binding”.

With B13, the binding result is on record as “no binding”.

With B14, the binding result was “binds”.

The target in a further assay is T3, huCD33-G69 stably expressed on Jurkat cells (human, UniProt P20138 18-364).
T3 construct: whole, on cells; >200,000 receptors per cell; also called CD33 Mutant; CD33 R69G
T3 sequence (P20138 18-364 R69G): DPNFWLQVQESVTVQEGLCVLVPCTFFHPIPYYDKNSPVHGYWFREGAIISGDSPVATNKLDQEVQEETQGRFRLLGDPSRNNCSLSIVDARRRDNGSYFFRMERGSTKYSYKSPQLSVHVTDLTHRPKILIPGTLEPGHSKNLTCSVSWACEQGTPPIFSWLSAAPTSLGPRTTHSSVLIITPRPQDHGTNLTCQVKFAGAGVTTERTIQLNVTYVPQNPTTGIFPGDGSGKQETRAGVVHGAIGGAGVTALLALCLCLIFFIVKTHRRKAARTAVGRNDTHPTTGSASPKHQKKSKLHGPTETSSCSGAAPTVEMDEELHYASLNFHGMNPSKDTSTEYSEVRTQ
In words: FACS on cells.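 Note: fixed Jurkat cells bearing either CD33 variant, barcoded by dye, exposed to myc-tagged scFv periplasmic extracts, detected with anti-myc PE antibody and read by flow cytometry.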
On to B15, for which the “geometric mean MFI fold change over Jurkat parental” value (“geometric mean MFI fold change” below) is less than 2 fold.

As for B16, the “geometric mean MFI fold change” value is less than 2 fold.

Turning to B17, the “geometric mean MFI fold change” value is 2 to 10 fold.

Consider B18, for which the “geometric mean MFI fold change” value was less than 2 fold.

The target in the next assay is T4, huCD33-R69 stably expressed on Jurkat cells (human, UniProt P20138 18-364).
T4 construct: whole, on cells; >200,000 receptors per cell; also called CD33 WT; CD33^ARG69
T4 sequence (P20138 18-364): as the sequence (P20138 18-364 R69G) above, with G52R counted along it
In words: FACS on cells.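 Note: fixed Jurkat cells bearing either CD33 variant, barcoded by dye, exposed to myc-tagged scFv periplasmic extracts, detected with anti-myc PE antibody and read by flow cytometry.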
Turning to B15, the “geometric mean MFI fold change” value fell in the range of 10 to 30 fold.

With B16, the “geometric mean MFI fold change” value was greater than 30 fold.

Regarding B17, the “geometric mean MFI fold change” value is less than 2 fold.

Regarding B18, the “geometric mean MFI fold change” value was greater than 30 fold.

The next assay deals with T5, huCD33-G69-Fc recombinant protein (human, UniProt P20138 18-259).
T5 construct: extracellular domain; also called CD33 R69G
T5 sequence (P20138 18-259 R69G): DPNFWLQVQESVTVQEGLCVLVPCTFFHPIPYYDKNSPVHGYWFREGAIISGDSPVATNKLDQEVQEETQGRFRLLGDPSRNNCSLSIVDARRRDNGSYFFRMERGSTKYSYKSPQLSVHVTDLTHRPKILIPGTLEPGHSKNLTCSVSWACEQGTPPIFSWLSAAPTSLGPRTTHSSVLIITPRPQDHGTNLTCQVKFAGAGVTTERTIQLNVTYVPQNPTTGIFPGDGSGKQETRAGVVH
In words: BLI.
With B16, the binding result is reported as “no binding”.
